Test results as given in patent publication US20240301429A1.

B1: NRP1 trap Z (receptor)
chain: FRNDKCGDTIKIESPGYLTSPGYPHSYHPSEKCEWLIQAPDPYQRIMINFNPHFDLEDRDCKYDYVEVFDGENENGHFRGKFCGKIAPPPVVSSGPFLFIKFVSDYETHGAGFSIRYELFKRGPECSQNYTTPSGVIKSPGFPEKYPNSLECTYIVFAPKMSEIILEFESFDLEPDSNPPGGMFCRYDRLEIWDGFPDVGPHIGRYCGQKTPGRIRSSSGILSMVFYTDSAIAKEGFSANYSVLQSSVSEDFKCMEALGMESGEIHSDQITASSQYSTNWSAERSRLNYPENGWTPGKKSYREWIQVDLGLLRFVTAVGTQGAISKETKKKYYVKTYKIDVSSNGEDWITIKEGNKPVLFQGNTNPTDVVVAVFPKPLITRFVRIKPATWETGISMRFEVYGCKITDYPCSGMLGMVSGLISDSQITSSNQGDRNWMPENIRLVTSRSGWALPPAPHSYINEWLQIDLGEEKIVRGIIIQGGKHRENKVFMRKFKIGYSNNGSDWKMIMDDSKRKAKSFEGNNNYDTPELRTFPALSTRFIRIYPERATHGGLGLRMELLGCEVEAPTAGPTTPNGNLVDECDDDQANCHSGTGDDFQLTGGTTVLATEKPTVIDSTIQSEFPTYGFNCEFGWGSHKTFCHWEHDNHVQLKWSVLTSKTGPIQDHTGDGNFIYSQADENQKGKVARLVSPVVYSQNSAHCMTFWYHMSGSHVGTLRVKLRYQKPEEYDQLVWMAIGHQGDHWKEGRVLLHKSLKLYQVIFEGEIGKGNLGGIAVDDISINNHISQEDCAKPADLDKKNPEIKIDETGSTPGYEGEGEGDKNISRKPGNVLKTLDPRSGSKENLYFQG
B2: NRP1 trap AB (receptor)
chain: FRNDKCGDTIKIESPGYLTSPGYPHSYHPSEKCEWLIQAPDPYQRIMINFNPHFDLEDRDCKYDYVEVFDGENENGHFRGKFCGKIAPPPVVSSGPFLFIKFVSDYETHGAGFSIRYELFKRGPECSQNYTTPSGVIKSPGFPEKYPNSLECTYIVFAPKMSEIILEFESFDLEPDSNPPGGMFCRYDRLEIWDGFPDVGPHIGRYCGQKTPGRIRSSSGILSMVFYTDSAIAKEGFSANYSVLQSSVSEDFKCMEALGMESGEIHSDQITASSQYSTNWSAERSRLNYPENGWTPGEDSYREWIQVDLGLLRFVTAVGTQGAIAKKTKKKYYVKTYKIDVSSNGEDWITIKEGNKPVLFQGNTNPTDVVVAVFPKPLITRFVRIKPATWETGISMRFEVYGCKITDYPCSGMLGMVSGLISDSQITSSNQGDRNWMPENIRLVTSRSGWALPPAPHSYINEWLQIDLGEEKIVRGIIIQGGKHRENKVFMRKFKIGYSNNGSDWKMIMDDSKRKAKSFEGNNNYDTPELRTFPALSTRFIRIYPERATHGGLGLRMELLGCEVEAPTAGPTTPNGNLVDECDDDQANCHSGTGDDFQLTGGTTVLATEKPTVIDSTIQSEFPTYGFNCEFGWGSHKTFCHWEHDNHVQLKWSVLTSKTGPIQDHTGDGNFIYSQADENQKGKVARLVSPVVYSQNSAHCMTFWYHMSGSHVGTLRVKLRYQKPEEYDQLVWMAIGHQGDHWKEGRVLLHKSLKLYQVIFEGEIGKGNLGGIAVDDISINNHISQEDCAKPADLDKKNPEIKIDETGSTPGYEGEGEGDKNISRKPGNVLKTLDPRSGSKENLYFQG
B3: NRP1 trap M (receptor)
chain: FRNDKCGDTIKIESPGYLTSPGYPHSYHPSEKCEWLIQAPDPYQRIMINFNPHFDLEDRDCKYDYVEVFDGENENGHFRGKFCGKIAPPPVVSSGPFLFIKFVSDYETHGAGFSIRYELFKRGPECSQNYTTPSGVIKSPGFPEKYPNSLECTYIVFAPKMSEIILEFESFDLEPDSNPPGGMFCRYDRLEIWDGFPDVGPHIGRYCGQKTPGRIRSSSGILSMVFYTDSAIAKEGFSANYSVLQSSVSEDFKCMEALGMESGEIHSDQITASSQYSTNWSAERSRLNYPENGWTPGEDSYREWIQVDLGLLRFVTAVGTQGAISKETKKKYYVKTYKIDVSSNGEDWITIKEGNKPVLFQGNTNPTDVVVAVFPKPLITRFVRIKPATWETGISMRFEVYGCRSGSKENLYFQG

What follows are binders tested against AP-VEGF165 (human) (UniProt P15692) (assay: saturation binding, trap coated on plate, AP-VEGF165 titrated, AP chemiluminescence).
Chain of AP-VEGF165 (human) (P15692 other isoform, or with tags, fused parts or gaps): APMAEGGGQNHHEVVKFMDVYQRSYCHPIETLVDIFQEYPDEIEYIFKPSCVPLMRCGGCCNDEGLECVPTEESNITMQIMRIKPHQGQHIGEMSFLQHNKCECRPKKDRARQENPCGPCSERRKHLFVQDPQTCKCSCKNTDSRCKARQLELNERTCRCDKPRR
Work on B1 yielded a Kd of 67 nM.
B2 showed a Kd of 29.5 nM.
In the case of B3, the Kd is reported as 20.1 nM.
